This data set concerns the target RadA recombinase (Pyrococcus abyssi, UniProt Q9V233 1-353). In words: EMSA; no ATP; 25 nM ssDNA, RadA 0-6.4 uM; 20 mM Tris-HCl pH 8.0, 50 ug/mL BSA, 2 mM DTT, 0.5% Triton, 65 C, 10 min; 0.75% native agarose gel. The following applies: protein: recombinant; tags: none (untagged); label: 5' HiLyte Fluor 647; single strand.

Chain of RadA recombinase (Q9V233 whole entry): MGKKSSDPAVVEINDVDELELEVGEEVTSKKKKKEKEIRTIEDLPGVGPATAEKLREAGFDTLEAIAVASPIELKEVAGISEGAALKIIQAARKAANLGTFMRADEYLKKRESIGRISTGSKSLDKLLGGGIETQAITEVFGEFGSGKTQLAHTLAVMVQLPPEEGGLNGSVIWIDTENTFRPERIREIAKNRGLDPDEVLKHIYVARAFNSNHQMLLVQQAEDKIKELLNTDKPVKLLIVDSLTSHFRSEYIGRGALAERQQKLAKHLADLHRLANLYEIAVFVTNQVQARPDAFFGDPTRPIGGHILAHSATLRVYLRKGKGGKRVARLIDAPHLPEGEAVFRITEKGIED

B1: L93-5'HL 647 (93-mer ssDNA) (ssDNA)
DNA: AAAGGCGGTAATACGGTTATCCACAGAATCAGGGGATAACGCAGGAAAGAACATGTGAGCAAAAGGCCAGCAAAAGGCCAGGAACCGTAAAAA
On to B1, for which the binding result is on record as “binds”.

These data come from publication PMC7407445, “Role of RadA and DNA Polymerases in Recombination-Associated DNA Synthesis in Hyperthermophilic Archaea”.
